Results: US20120230990A1 (MERCK SERONO, published 2012)

Columns and labels:
Assay in all cases: competitive ELISA: biotinylated 280-346-TSY on plate-coated human IL-22RA-ECD, soluble competitor titrated, peroxidase-conjugated streptavidin, OD 450nm
[1] = target: T1, human IL-10 receptor alpha (human, UniProt Q13651 22-235, limits assumed)
T1 construct: also called hIL-10R; IL-10R alpha
T1 sequence (looked up): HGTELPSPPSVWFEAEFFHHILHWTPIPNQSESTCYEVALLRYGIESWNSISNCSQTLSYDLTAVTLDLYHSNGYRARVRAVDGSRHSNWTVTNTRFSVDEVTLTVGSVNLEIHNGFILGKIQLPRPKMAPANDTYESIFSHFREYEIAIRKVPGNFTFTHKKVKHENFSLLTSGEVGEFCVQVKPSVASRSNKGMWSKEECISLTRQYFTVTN
Method: (§1) FIG. 23 reports the results of a competitive ELISA done to measure the specificity of 280.346.TSY to human IL-22RA. Microtiter plates were coated with human IL-22RA-ECD (i.e. IL-22RA-Extra Cellular Domain). Biotinylated 280-346-TSY antibody was added to the plate in the presence of competitors: human interleukin 22 receptor alpha (hIL-22RA), human IL-22 binding protein (hIL-22BP), murine IL-22 receptor alpha (mIL-22RA), human IL-10 receptor alpha (hIL-10R) and human IL-20 receptor alpha (hIL-20R).
(§2) Specificity and binding affinity of 280.346.TSY was determined using a competitive ELISA. Microtiter plates were coated with human IL-22RA-ECD (i.e. IL-22RA-Extra Cellular Domain). Biotinylated 280-346-TSY antibody was added to the plate in the presence of competitors: human interleukin 22 receptor alpha (hIL-22RA), human IL-22 binding protein (hIL-22BP), mouse IL-22 receptor alpha (mIL-22RA), human IL-10 receptor alpha (hIL-10R) and human IL-20 receptor alpha (hIL-20R).

[2] = target: T2, human IL-20 receptor alpha (human, UniProt Q9UHF4 30-250, limits assumed)
T2 construct: also called hIL-20R; IL-20R alpha
T2 sequence (looked up): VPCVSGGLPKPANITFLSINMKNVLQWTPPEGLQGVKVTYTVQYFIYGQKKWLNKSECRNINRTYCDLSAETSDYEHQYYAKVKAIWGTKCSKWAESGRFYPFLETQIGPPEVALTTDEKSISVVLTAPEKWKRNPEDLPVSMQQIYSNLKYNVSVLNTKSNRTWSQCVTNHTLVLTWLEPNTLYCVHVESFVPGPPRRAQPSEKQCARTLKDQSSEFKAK
Method: as §1, §2

[3] = target: T3, human IL-22 binding protein (human, UniProt Q969J5-2 22-231, limits assumed)
T3 construct: also called hIL-22BP; IL-22BP
T3 sequence (looked up): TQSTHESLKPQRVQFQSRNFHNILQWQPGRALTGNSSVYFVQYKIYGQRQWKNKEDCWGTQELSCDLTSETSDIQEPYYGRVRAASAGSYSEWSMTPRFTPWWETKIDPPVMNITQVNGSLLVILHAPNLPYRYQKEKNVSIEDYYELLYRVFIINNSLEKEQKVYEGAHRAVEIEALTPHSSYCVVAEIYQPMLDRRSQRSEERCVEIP
Method: as §1, §2

Measured: binding result

B1: 280.346.TSY (humanized anti-human IL-22RA antibody comprising 280.VH3-66-46 paired with 280.VK4-1-TSY, human IgG1/kappa) (antibody, V domains shown)
VH: EVQLVESGGGLVQPGGSLRLSCAASGYSITAEYMNWVRQAPGKGLEWIGEINPSTGTTTYNQKFKGRFTISVDQSKNTAYLQMNSLRAEDTAVYYCARFDAYFDYWGQGTLVTVSS
VL: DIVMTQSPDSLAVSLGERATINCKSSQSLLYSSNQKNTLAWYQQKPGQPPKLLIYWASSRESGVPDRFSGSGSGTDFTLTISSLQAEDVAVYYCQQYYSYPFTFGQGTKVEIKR
notes: Produced in CHO cells; also called 280.VH3-66-46/VK4-1-TSY; 280.VH3-66.46 paired with 280.IGKV4-1-TSY
no binding: all assays above
